These are literature values, as cited in paper PMC2775957.

For one data set, the target named is TEM8 (Homo sapiens) (UniProt Q9H6X2).
Another data set concerns the target CMG2 (Homo sapiens) (UniProt P58335).

As to “Protective antigen (from UniProt P13423)”, the Kd with TEM8 (Homo sapiens) was 10 nM; with CMG2 (Homo sapiens) it was 1 nM.

As usually defined, the Kd is the equilibrium constant for the complex coming apart.
